How the values were obtained:
Assay in all cases: IF staining, CHO cells
[1] = molecular target: T1, FZD6 expressed on CHO cells (UniProt O60353 19-132, limits assumed)
T1 construct: As m62
T1 sequence (looked up): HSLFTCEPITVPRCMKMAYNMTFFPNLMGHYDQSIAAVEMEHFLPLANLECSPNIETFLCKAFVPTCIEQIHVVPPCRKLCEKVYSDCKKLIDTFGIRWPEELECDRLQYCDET

[2] = molecular target: T2, FZD3 expressed on CHO cells (UniProt Q9NPG1 23-136, limits assumed)
T2 construct: As m62
T2 sequence (looked up): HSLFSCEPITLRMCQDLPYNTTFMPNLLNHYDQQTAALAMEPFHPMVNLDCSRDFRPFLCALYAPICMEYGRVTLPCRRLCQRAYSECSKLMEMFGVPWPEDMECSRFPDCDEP

[3] = molecular target: T3, FZD10 expressed on CHO cells (UniProt Q9ULW2 29-150, limits assumed)
T3 construct: As m62
T3 sequence (looked up): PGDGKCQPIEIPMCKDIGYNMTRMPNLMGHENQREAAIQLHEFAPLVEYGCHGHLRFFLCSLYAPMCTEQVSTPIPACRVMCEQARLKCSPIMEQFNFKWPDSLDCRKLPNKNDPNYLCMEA

Measured: binding result

B1: Fab 5017 (Fab, V domains shown)
VH: EVQLVESGGGLVQPGGSLRLSCAASGFNLYYTDMHWVRQAPGKGLEWVASISLFFGYVSYADSVKGRFTISADTSKNTAYLQMNSLRAEDTAVYYCARYLAMDYWGQGTLVTVSS
VL: DIQMTQSPSSLSASVGDRVTITCRASQSVSSAVAWYQQKPGKAPKLLIYSASSLYSGVPSRFSGSRSGTDFTLTISSLQPEDFATYYCQQAAYHWPPLFTFGQGTKVEIKR
notes: Tested as purified Fab; also called 4A1
no binding: [1] | [2] | [3]

— patent US20220356256A1 (published 2022)
